Assay [1] concerns the target T1, human CD3 receptor complex (human, UniProt P07766 23-207; P09693 23-182; P04234 22-171). The assay is described as follows: cell-based or functional assay.
Assay [2] concerns the target T1, human CD3 receptor complex. The assay is described as follows: flow cytometry on CCRF-CEM cells (CD3-positive), FITC anti-human IgG detection. Here is the method: (§1) Cell suspensions of CD19-positive cell lines (NALM6 (ATCC® CRL-3273™), Toledo (ATCC® CRL-2631™), Namalwa (ATCC® CRL-1432™), Daudi (ATCC® CCL-213™), Ramos (RA 1) (ATCC® CRL-1596™), Raji (ATCC® CCL-86™)) and CD3-positive cell lines (HuT78 (ATCC® TIB-161™), CCRF-CEM (ATCC® CCL-119™), Jurkat (ATCC® TIB-152™)) with the concentration of 2*10⁶ cells/mL were introduced by 30 μL into a 96-well plate with a V-shaped bottom (Corning Inc, Cat. No. 3894). […] When the incubation was over, the cells were twice washed with the FACS buffer and deposited by centrifuging at 1000 rpM and (4±2°) C. 30 μL of a solution of FITC-tagged antibodies directed against human IgG (Donkey F(ab)₂ Anti-Human IgG, Abcam, Cat. No. Ab102437) diluted in the 1:200 ratio were added into each well to the deposited cells, and incubated on ice in the dark for 30 minutes, followed by triple washing with the FACS buffer. Then the cells were fixed by re-suspending the cell deposit in each well in 150 μL of the FIX-buffer (phosphate buffered saline with 1%-solution of formalin). Cell fluorescence intensity in the FITC-channel was measured with the use of the Canto II cytometer.
On the technique in general: In flow cytometry, cells or beads pass a laser one at a time.

In assay [3] the target is T1, human CD3 receptor complex. The assay is described as follows: flow cytometry on PBMCs of donor alpha; competition of titrated BSAB with 100 nM biotin-conjugated BSAB, PE-streptavidin detection. Here is the method:
(§2) The blood was diluted with the same volume of the phosphate buffered saline (ECO-Servis, Cat. No. B-60201), layered above Ficoll density gradient (ρ=1.077 g/cm³) (“Pan-Eco”, Cat. No. P052) and centrifuged at 800 g and 20±2° C. for 30 minutes. PBMCs were collected at the phase boundary and washed twice with an isotonic phosphate buffered saline. A cell deposit was re-suspended in 15 mL of the DMEM/F12 medium (Sigma, Cat. No. D8900-10L) with 10% fetal bovine serum (GE Healthcare, Cat. No. SV30160) and incubated in a cultural vial (SPL Life Sciences Co, Cat. No. 70075) for attaching monocytes at 37±2° C. for 4 hours. Upon incubation, unattached cells were collected, a cell suspension was centrifuged, a cell deposit was re-suspended in the FACS buffer with a 1:100 Fc Blook solution (BD Pharmingen™, Cat. No. 564220) for inhibiting non-specific binding of Fc-receptors exposed on B-cell membranes. The prepared PBMC suspension with the cell concentration of 4*10⁶/mL was introduced by 50 μL (2*10⁵ cells per well) into a 96-well plate with a V-shaped bottom (Corning Inc, Cat. No. 3894).
(§3) Then a solution of biotin-conjugated BSAB with the concentration of 300 nM was prepared and introduced into wells with cells by 50 μL (preparation final concentration being 100 nM). […] Cell fluorescence intensity in the PE-channel was measured with the use of the Canto II cytometer. […]

For assay [4], the target named is T1, human CD3 receptor complex. The assay is described as follows: flow cytometry on HUT78 cells (CD3-positive), FITC anti-human IgG detection. Here is the method: as §1
The target in assay [5] is T1, human CD3 receptor complex. The assay is described as follows: flow cytometry on PBMCs of donor beta; competition of titrated BSAB with 100 nM biotin-conjugated BSAB, PE-streptavidin detection. Here is the method: as §2, §3
Assay [6] addresses T1, human CD3 receptor complex. The assay is described as follows: cell-based or functional assay. This is another data set of the same source.
The target of assay [7] is T1, human CD3 receptor complex. The assay is described as follows: flow cytometry on Jurkat cells (CD3-positive), FITC anti-human IgG detection. Here is the method:
as §1

Assay [8] has as its target T1, human CD3 receptor complex. The assay is described as follows: flow cytometry on PBMCs of donor; competition of titrated BSAB with 100 nM biotin-conjugated BSAB, PE-streptavidin detection. Here is the method: as §2, §3

We go through one molecule from US20230212288A1 (published 2023).

A word on the EC50: it is the concentration needed to bring the measured effect to its halfway point. What is called IC50 is the concentration needed to halve the response being measured. Lower therefore signals greater potency in that assay.

T1 sequence (P07766 23-207, chain 1 of 3): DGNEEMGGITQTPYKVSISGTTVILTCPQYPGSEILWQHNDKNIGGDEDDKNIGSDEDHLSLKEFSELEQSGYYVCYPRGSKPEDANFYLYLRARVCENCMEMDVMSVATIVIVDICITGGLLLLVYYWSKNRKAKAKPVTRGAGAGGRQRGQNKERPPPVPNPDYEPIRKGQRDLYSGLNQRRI
T1 sequence (P09693 23-182, chain 2 of 3): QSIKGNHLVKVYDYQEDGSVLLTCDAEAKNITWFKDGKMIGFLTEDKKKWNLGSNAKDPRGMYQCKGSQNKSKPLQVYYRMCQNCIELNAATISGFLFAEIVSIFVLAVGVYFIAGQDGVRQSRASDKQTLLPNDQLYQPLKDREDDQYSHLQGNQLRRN
T1 sequence (P04234 22-171, chain 3 of 3): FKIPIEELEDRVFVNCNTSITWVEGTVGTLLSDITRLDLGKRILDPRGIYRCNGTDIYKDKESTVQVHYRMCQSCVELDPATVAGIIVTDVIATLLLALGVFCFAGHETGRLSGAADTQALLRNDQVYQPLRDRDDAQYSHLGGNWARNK

B1: 309_02_A08 BSAB clone (bispecific antibody)
chain: DIQLTQTPASLAVSLGQRATISCKASQSVDYDGDSYLNWYQQIPGQPPKLLIYDASNLVSGIPPRFSGSGSGTDFTLNIHPVEKVDAATYHCQQSTEDPWTFGGGTKLEIKGGSGGAMAQVQLVQSGAEVKKPGASVKVSCKASGYTFTGYYMHWVRQAPGQGLEWMGIINPSGGSTSYAQKFQGRVTMTRDTSTSTVYMELSSLRSEDTAVYYCARTGKNYYYYGMDAWGQGTTVTVSSGGGGSGGGGSGGGASNFMLTQPHSVSESPGKTVTISCTRSSGSIARNYVQWYQQRPGSSPTTVIYEDNQRPSGVPDRFSASIDSSSNSASLTISGLQTEDEADYYCQSYDTSNHVVFGGGTKLTVLGQPAAAGGGGSQVQLQQSGAELVRPGSSVKISCKASGYAFSSYWMNWVKQRPGQGLEWIGQIWPGDGDTNYNGKFKGKATLTADESSSTAYMQLSSLASEDSAVYFCARRETTTVGRYYYAMDYWGQGTSVTVSSASAAVECPPCPAPPVAGPSVFLFPPKPKDTLMISRTPEVTCVVVDVSHEDPEVQFNWYVDGVEVHNAKTKPREEQFNSTFRVVSVLTVVHQDWLNGKEYKCKVSNKGLPAPIEKTISKTKGQPREPQVYTLPPSREEMTKNQVSLTCLVKGFYPSDIAVEWESNGQPENNYKTTPPMLDSDGSFFLYSKLTVDKSRWQQGNVFSCSVMHEALHNHYTQKSLSLSPGK
notes: described order VL CD3-VH CD19-VL CD19-VH CD3 with hinge and IgG2 Fc; the tie is not explicit; also called BSAB preparation
Take B1: in assay [1], the “EC50 of chemiluminescence signal, Raji cells with Jurkat-Luc-NFAT reporter cells” value came out at 0.0023 nM. For the same molecule, the values for the EC50 in assay [2], in assay [4] and in assay [7] were 0.4 nM, 1.2 nM and 0.37 nM, respectively. Besides, the IC50 in assay [3] stood at 52.1 nM; in assay [5], 66.5 nM; in assay [8], 62.3 nM. The “Activity (EC50 for activation of Jurkat line cells, pM)” value in assay [6] came to 2.2 pM.
